Reference: patent publication US7097982 (IMMUNOGEN, dated 2006)

Columns and labels:
[1] = target: T1, Flag tag-Bcl-xL (UniProt Q07817 1-233); test: co-immunoprecipitation from transfected COS cells (summarised in FIG. 6)
T1 construct: Expressed in transfected COS cells; also called Flag-Bcl-xL

[2] = target: GST alone (purified, bacterially expressed) (UniProt P08515 1-218 = GST); test: GST pull-down on glutathione-agarose, autoradiography
[3] = target: GST-PEM bacterially-expressed fusion protein (Bak residues 58-103 fused to GST) (UniProt P08515 1-218 = GST; Q16611 58-103); test: GST pull-down of in vitro translated 35S labeled protein
Chain of GST-PEM bacterially-expressed fusion protein (Bak residues 58-103 fused to GST) (P08515 1-218, tags or fused parts left off): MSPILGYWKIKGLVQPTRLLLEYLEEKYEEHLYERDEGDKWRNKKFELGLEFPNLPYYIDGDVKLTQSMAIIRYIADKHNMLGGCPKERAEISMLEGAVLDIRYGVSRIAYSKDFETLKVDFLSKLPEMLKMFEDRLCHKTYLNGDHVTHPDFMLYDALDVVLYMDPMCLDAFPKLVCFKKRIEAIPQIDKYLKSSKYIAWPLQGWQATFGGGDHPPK

T1 sequence (Q07817 whole entry): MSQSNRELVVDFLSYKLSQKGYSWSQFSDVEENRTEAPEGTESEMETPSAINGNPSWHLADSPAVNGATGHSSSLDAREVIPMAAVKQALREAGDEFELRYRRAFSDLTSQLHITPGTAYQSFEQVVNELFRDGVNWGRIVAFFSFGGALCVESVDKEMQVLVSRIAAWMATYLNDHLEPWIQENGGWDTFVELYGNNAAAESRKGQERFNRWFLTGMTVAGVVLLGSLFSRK
Chain of GST alone (purified, bacterially expressed) (P08515 whole entry, the tested form may be a part): as the sequence (P08515 1-218, tags or fused parts left off) above

Row | Binder | binding result [1] | also measured
1 | Bip1a ΔGD mutant (other, UniProt Q13323 1-160, looked up) MSEVRPLSRDILMETLLYEQLLEPPTMEVLGMTDSEEDLDPMEDFDSLECMEGSDALRAPRLAQLSEVAMHSLGLAFIYDQTEDIRDVLRSFMDGFTTLKENIMRFWRSPNPGSWVSCEQVLLALLLLLALLLPLLSGGLHLLLK | no binding | –
2 | Bak, in vitro translated, 35S-methionine labeled (other, UniProt Q16611 1-211, looked up, 35S-methionine label, also called 35S labeled in vitro translated Bak; 35Met-labeled Bak) MASGQGPGPPRQECGEPALPSASEEQVAQDTEEVFRSYVFYRHQQEQEAEGVAAPADPEMVTLPLQPSSTMGQVGRQLAIIGDDINRRYDSEFQTMLQHLQPTAENAYEYFTKIATSLFESGINWGRVVALLGFGYRLALHVYQHGLTGFLGQVTRFVVDFMLHHCIARWIAQRGGWVAALNLGNGPILNVLVVLGVVLLGQFVVRRFFKS | – | binding result [2]: no binding
3 | Bip1a (other, UniProt Q13323 1-160, looked up, Used in vitro translated and 35S labeled, and expressed in transfected COS cells; also called in vitro translated, 35S labeled Bip1a) MSEVRPLSRDILMETLLYEQLLEPPTMEVLGMTDSEEDLDPMEDFDSLECMEGSDALALRLACIGDEMDVSLRAPRLAQLSEVAMHSLGLAFIYDQTEDIRDVLRSFMDGFTTLKENIMRFWRSPNPGSWVSCEQVLLALLLLLALLLPLLSGGLHLLLK | – | binding result [3]: no binding
4 | Bax ΔGD mutant (other, UniProt Q07812 1-192, looked up) MDGSGEQPRGGGPTSSEQIMKTGALLLQGFIQDRAGRMGGEAPELALDPVPQDASTKKMELQRMIAAVDTDSPREVFFRVAADMFSDGNFNWGRVVALFYFASKLVLKALCTKVPELIRTIMGWTLDFLRERLLGWIQDQGGWDGLLSYFGTPTWQTVTIFVAGVLTASLTIWKKMG | no binding | –
